The source of these data is patent publication US20100016226A1.

Values joined by “and” are separate entries in the source; they are usually repeats but may differ in a detail not shown here. Identical values can stand only once. Where no end group is shown, it is not given here. The star is where a group is joined. 125I = [125I]*

Assay [1] addresses UAG binding sites on human CAC (circulating angiogenic cell) membranes (human). The assay can be described thus: radioligand binding to CAC membranes; binding without minus binding with 100 nM unlabelled UAG.
The target is the same in assay [2]. Description: saturation radioligand binding on CAC membranes, Scatchard analysis.
The target is the same in assay [3]. The assay can be described thus: radioligand binding to frozen-thawed CAC membranes, two cell preparations.
Assay [4] has the same target. The assay can be described thus: saturation radioligand binding on CAC membranes.
Assay [5] shares this target. The assay can be described thus: radioligand binding to fresh CAC membranes, two cell preparations.

One may read the Kd as the constant that tells how readily two partners part at equilibrium. High values mean weaker binding, low ones tighter binding. In assay [1], GSSY(125I)LSPEHQRVQQRKESKKPPAKLQPR [[125I-Tyr4]-UAG] displayed a specific binding, percent of control value of 75%. In assay [2], this molecule came in with a Bmax (fmol/mg membrane protein) of 10.7 and an equilibrium dissociation constant (Kd) of 0.48 nM. For the same molecule, the specific binding, frozen-thawed CAC membranes in assay [3] was 0.2 fmol and 0.33 fmol. Further, the radioligand concentration at maximal specific binding in assay [4] stood at 2 nM. Moreover, the specific binding, fresh CAC membranes in assay [5] is 0.25 fmol and 0.26 fmol.
